Legend:
[1] = system: A375v human melanoma xenograft (A375v/pCEP, A375v/sTie2); assay: Tumor growth in A375v human melanoma xenograft model, Example 1 (VEGF receptor kinase inhibitor and/or sTie2); assay type: in vivo, Swiss nu/nu mice; settings: s.c. A375v xenograft; kinase inhibitor 50 mg/kg daily oral; sTie2 expressed by tumor cells; untreated control 24 days
Protocol: Human melanoma cell line A375v was stably transfected to overexpress the extracellular ligand-neutralizing domain of human Tie2 receptor tyrosine kinase (sTie2; compound II) (Siemeister et al., Cancer Res. 59, 3185-3191, 1999). For control, A375v cells were stably transfected with the empty expression vector (A375v/pCEP). Swiss nu/nu mice were s.c. injected with 1×10^6 transfected A375v/sTie2 or A375v/pCEP tumor cells, respectively. Animals receiving compound I were treated for up to […] with daily oral doses of 50 mg/kg of the VEGF receptor tyrosine kinase inhibitor (4-Chlorophenyl)[4-(4-pyridylmethyl)-phthalazin-1-yl]ammonium hydrogen succinate (Wood et al., Cancer Res. 60, 2178-2189, 2000). Various modes of treatment are described in Table 1. Tumor growth was determined by caliper measurement of the largest diameter and its perpendicular.

[2] = system: Tumors derived from A375v/pCEP cells; assay: Tumor growth in A375v xenograft, Example 4 (VEGF receptor kinase inhibitor and/or scFv-tTF conjugate); assay type: in vivo, nude mice; settings: kinase inhibitor 50 mg/kg daily oral; scFv-tTF conjugate 20 μg i.v. on day 0 and day 4; untreated control approx. 1000 mm^3
Protocol: (§1) Tumors derived from A375v/pCEP cells were induced in nude mice as described in example 1. Animals receiving compound I were treated for up to 28 days with daily oral doses of 50 mg/kg of the VEGF receptor tyrosine kinase inhibitor (4-Chlorophenyl)[4-(4-pyridylmethyl)-phthalazin-1-yl]ammonium hydrogen succinate (Wood et al., Cancer Res. 60, 2178-2189, 2000). Compound II consists of a single chain antibody (scFv) specifically recognizing the human VEGF-A/VEGF receptor I complex (WO 99/19361) which was expressed in E. coli and conjugated to coagulation-inducing recombinant human truncated tissue factor (tTF) by methods descibed by Ran et al. (Cancer Res. 58, 46464653, 1998). When tumors reached a size of approx. 200 mm^3 animals receiving compound II were treated on day 0 and on day 4 with intravenous doses of 20 μg of the scFv-tTF conjugate. Various modes of treatment are described in Table 4. Animals were sacrificed for ethical reasons when tumors of group 1 exceeded a volume of approx. 1000 mm^3. Tumor growth was determined by caliper measurement of the largest diameter and its perpendicular.

[3] = system: Tumors derived from A375v/pCEP cells; assay: Tumor growth in A375v xenograft, Example 6 (VEGF receptor kinase inhibitor and/or L19 scFv-tTF); assay type: in vivo, nude mice; settings: kinase inhibitor 50 mg/kg daily oral; L19 scFv-tTF single i.v. dose of 20 μg; untreated control approx. 1000 mm^3
Protocol: Tumors derived from A375v/pCEP cells were induced in nude mice as described in example 1. Animals receiving compound I were treated for up to 28 days with daily oral doses of 50 mg/kg of the VEGF receptor tyrosine kinase inhibitor (4-Chlorophenyl)[4-(4-pyridylmethyl)-phthalazin-1-yl]ammonium hydrogen succinate (Wood et al., Cancer Res. 60, 2178-2189, 2000). Compound II consists of L19 scFv-tTF fusion protein as described in example 5. When tumors reached a size of approx. 200 mm^3 animals receiving compound II were treated with a single intravenous dose of 20 μg of L19 scFv-tTF in 200 μl saline. Various modes of treatment are described in Table 6. Animals were sacrificed for ethical reasons when tumors of -group 1 exceeded a volume of approx. 1000 mm^3. Tumor growth was determined by caliper measurement of the largest diameter and its perpendicular.

[4] = system: Tumors derived from A375v/sTie2 cells and from A375v/pCEP cells; assay: Tumor growth in A375v xenograft, Example 2 (mAb 4301-42-35 and/or sTie2); assay type: in vivo, nude mice; settings: sTie2 expressed by tumor cells; untreated control approx. 1000 mm^3
Protocol: Tumors derived from A375v/sTie2 cells and from A375v/pCEP cells were induced in nude mice as described in example 1. Animals receiving compound I were treated twice weekly over a period of time of 4 weeks with intraperitoneal doses of 200 μg of the VEGF-A-neutralizing monoclonal antibody (mAb) 4301-42-35 (Schlaeppi et al., J. Cancer Res. Clin. Oncol. 125, 336-342, 1999). Various modes of treatment are descibed in Table 2. Animals were sacrificed for ethical reasons when tumors of group 1 exceeded a volume of approx. 1000 mm^3. Tumor growth was determined by caliper measurement of the largest diameter and its perpendicular.

[5] = system: Tumors derived from A375v/sTie2 cells and from A375v/pCEP cells; assay: Tumor growth in A375v xenograft, Example 3 (scFv-tTF conjugate and/or sTie2); assay type: in vivo, nude mice; settings: sTie2 expressed by tumor cells; untreated control approx. 1000 mm^3
Protocol: as §1, with “derived from A375v/sTie2 cells and” for “derived”, “A” for “Animals receiving compound I were treated for up to 28 days with daily oral doses of 50 mg/kg of the VEGF receptor tyrosine kinase inhibitor (4-Chlorophenyl)[4-(4-pyridylmethyl)-phthalazin-1-yl]ammonium hydrogen succinate (Wood et al., Cancer Res. 60, 2178-2189, 2000). Compound II consists of a”, “99/19361)” for “99/19361) which”, “4646-4653,” for “46464653,”, “I” for “II”, “3.” for “4.”

[6] = system: Tumors derived from A375v/sTie2 cells and from A375v/pCEP cells; assay: Tumor growth in A375v xenograft, Example 5 (L19 scFv-tTF and/or sTie2); assay type: in vivo, nude mice; settings: sTie2 expressed by tumor cells; untreated control approx. 1000 mm^3
Source text: Tumors derived from A375v/sTie2 cells and from A375v/pCEP cells were induced in nude mice as described in example 1. A fusion protein (L19 scFv-tTF) consisting of L19 single chain antibody specifically recognizing the oncofoetal ED-B domain of fibronectin and the extracellular domain of tissue factor was expressed in E. coli as described by Nilsson et al. (Nat. Med., in press). Further, L19 scFv-tTF data have been represented by D. Neri and F. Nilsson (Meeting “Advances in the application of monoclonal antibodies in clinical oncology”, Samos, Greece, 31. May-2. June 2000). When tumors reached a size of approx. 200 mm^3 animals receiving compound I were treated with a single intravenous dose of 20 μg of L19 scFv-tTF in 200 μl saline. Various modes of treatment are described in Table 5. Animals were sacrificed for ethical reasons when tumors of group 1 exceeded a volume of approx. 1000 mm^3. Tumor growth was determined by caliper measurement of the largest diameter and its perpendicular.

Molecule: Clc1ccc(Nc2nnc(Cc3ccncc3)c3ccccc23)cc1.O=C(O)CCC(=O)O [(4-Chlorophenyl)[4-(4-pyridylmethyl)-phthalazin-1-yl]ammonium hydrogen succinate]
- time for tumors to grow to a size of approx. 250 mm^2 (mean area) [1]: 31 days
- tumor volume within 28 days [2]: approx. 550 mm^3
- tumor volume within 28 days [3]: approx. 550 mm^3

B1: sTie2: extracellular ligand-neutralizing domain of human Tie2 receptor tyrosine kinase, overexpressed by transfected A375v cells (protein, UniProt Q02763 23-748, looked up)
extracellular domain: AMDLILINSLPLVSDAETSLTCIASGWRPHEPITIGRDFEALMNQHQDPLEVTQDVTREWAKKVVWKREKASKINGAYFCEGRVRGEAIRIRTMKMRQQASFLPATLTMTVDKGDNVNISFKKVLIKEEDAVIYKNGSFIHSVPRHEVPDILEVHLPHAQPQDAGVYSARYIGGNLFTSAFTRLIVRRCEAQKWGPECNHLCTACMNNGVCHEDTGECICPPGFMGRTCEKACELHTFGRTCKERCSGQEGCKSYVFCLPDPYGCSCATGWKGLQCNEACHPGFYGPDCKLRCSCNNGEMCDRFQGCLCSPGWQGLQCEREGIQRMTPKIVDLPDHIEVNSGKFNPICKASGWPLPTNEEMTLVKPDGTVLHPKDFNHTDHFSVAIFTIHRILPPDSGVWVCSVNTVAGMVEKPFNISVKVLPKPLNAPNVIDTGHNFAVINISSEPYFGDGPIKSKKLLYKPVNHYEAWQHIQVTNEIVTLNYLEPRTEYELCVQLVRRGEGGEGHPGPVRRFTTASIGLPPPRGLNLLPKSQTTLNLTWQPIFPSSEDDFYVEVERRSVQKSDQQNIKVPGNLTSVLLNNLHPREQYVVRARVNTKAQGEWSEDLTAWTLSDILPPQPENIKISNITHSSAVISWTILDGYSISSITIRYKVQGKNEDQHVDVKIKNATITQYQLKGLEPETAYQVDIFAENNIGSSNPAFSHELVTLPESQAPADLGGGKMLL
modifications: extracellular domain
notes: extracellular ligand-neutralizing domain of human Tie2 receptor tyrosine kinase, overexpressed by transfected A375v cells
- time for tumors to grow to a size of approx. 250 mm^2 (mean area) [1]: 31 days
- tumor volume within 28 day [4]: approx. 600 mm^2
- tumor volume within 28 day [5]: approx. 600 mm^2
- tumor volume within 28 day [6]: approx. 600 mm^2

Reference: patent US20030055006A1, “Combinations and compositions which interfere with VEGF/VEGF and angiopoietin/tie receptor function and their use” (Schering Aktiengesellschaft, priority 2000, published 2003)
